Consider 21 sequences from a protein production outcome set (Wang et al. 2014).

The series in a line: label from the status in PepcDB records.

For the sequence “MSKKSGLSFLWLSAVAFVIDLLTKYIVVQKFDLYESVNVLPVFNLTYVRNYGAAFSFLADHSGWQQYFFILLALAISGMLVYFLAKNNAEQKIQNSAYALIIGGALANMVDRAYNGFVVDFFDFYWDIYHYPVFNIADIAICIGAGLLVLDAFKSEKKKVQDKQVEKCGQK”, the protein production result is given as “failed”.

As for “MSKPLYVFDMDETLINADCAMIWNAFLVEKGIATQPNFIEEDQRLMALYAEGKMDMEDYLEFCMAPLADMPIAHVLMLVEECVEHHILPKQFEQSKTLIAQLDRDDIDMVIISASVTFLVEAVGRRLGIPVALGIDLVEKHGSYSAEIAGVPSYREGKVIRLKAWLDAQPESYSEVHFYTDSINDLPLCEYADYAYLVNPCPQLKARADKANWTLLRWN”, the protein production entry was “failed”.

On to “MSKQAVYKIELKIFGYFILILMLSTITVILMLIVKNALEEVLIRYNENTLMTAKFLFCDVKKFSIVMYFFVFVIWSHLLLKRKVQYFINLSESTSEIAKGNFKVIIPVKREDEFGNLAKGINEIVEKFNFILKKEKEIEKTKIDLITNVSHDLRTPLTSILGYLELVENDQYKDEVALWYYIDIAYNKTKRLKVLIDDLFQLTTLNEHSMKLCKKEINIAELLKQLIGEYMLNFQKAGIRCRLKLTDEKLYVLGDAVLLIRAFENIIINCIKYSKTSEIMDVSVQRKGDMAVLNFINYGEPIPAIDIPYIFQRFYRVDKSRSDKLGGSGLGLAIAKNIIDITGGNIEVESDTTRTNFKIVLPCYGK”, for which the protein production entry is recorded as “failed”.

“MSKQLLALNIDGALLRSNGKIHQATKDAIEYVKKKGIYVTLVTNRHFRSAQKIAKSLKLDAKLITHSGAYIAEKIDAPFFEKRISDDHTFNIVQVLESYQCNIRLLHEKYSIGNKKKVNSNLLGKALIHPSDPIFYPVQFVESLSDLLMDEPVSAPVIEVYTEHDIQHDITETITKAFPAVDVIRVNDEKLNIVPKGVSKEAGLALVASELGLSMDDVVAIGHQYDDLPMIELAGLGVAMGNAVPEIKRKADWVTRSNDEQGVAYMMKEYFRMQQRKGFLDKFHMKR”: the protein production result is on record as “not failed”.

Regarding “MSKRSEVLEQFHGGLKNLELQTKRRMGLWGDPKENEEQTLFLEEIENELKQLENKENLKADNNTEFKEENQDTKENQPNDLFSLPLPTQTTINGIKEFVEEPVIETEKKETSQNEPIQEKKERIFKNFFSRIGFDKSIAPTMLFEEVRDASVIYHLEKKLGDYIFYVACFFFGTTALLIILLTILLPLKQKEPYLVQFSNNKENFALVQKADSSITANKALIRSLVGAYVLNRESITHIEQHEKMRQNTIKEQSSNEVWYEFEKLIAHYDSIYTNPLLTRKVKIANIYLDKDLAYIDIEVSLYHSGELESLKRYKVVMSFEFKKQEINFDSMSLNPTGFMVTSYDVTEIAIVNYPTAKAIGLFLAS”, the protein production result is “failed”.

Turning to “MSKTDTAAVEATEENSNETTSDAATSSSGEKEAEFDNKIEADRSRRFDFLLKQTEIFTHFMTNSAKSPTKPKGRPKKIKDKDKEKDVADHRHRKTEQEEDEELLAEDSATKEIFRFDASPAYIKSGEMRDYQIRGLNWMISLYENGINGILADEMGLG”, the protein production entry is given as “failed”.

With “MSKTLKEITDQKNELKKFFENFVLNLEKTEIFSEIQKNLTDEVLFVGCGSSYNLALTISYYFERVLKIRTKAIPAGEVAFQKIPDLEERGLAFLFSRTGNTTEVLLANDVLKKRNHRTIGITIEEESRLAKESDLPLVFPVREEAIVMTKSFSMILLSLMFLADKIAGNSTERFSELVGYSPEFFDISWKVIEKIDLKEHDHFVFLGMSEFFGVSLESALKCIEMSLTFSEAYSTLEYRHGPKALVKKGTLVFMQKVSGMDEQEKRLRKELESLGATVLEVGEGGDIPVSNDWKSAFLRTVPAQILGYQKAISRGISPDKPPHLEKTVVL”, the protein production result was “not failed”.

For the sequence “MSKVCQVTGKRPVVGNNVSHANNKTKRRFEPNLHHHRFWLESEKRFVRLRLTTKGMRIIDKLGIEKVVADLRAQGQKI”, the protein production entry was “failed”.

In the case of “MSKVFVNISLSLDGFMAPEGMDMAHFSDPTYKNWGAKWGALMAWALSQQYLREKLKLGTGGETGPVNDMVRHTFERTGAHIMGKRMFEGGERGWPEEAPFHTPVYVLTHERRNPWVRPGGTTFYFVNDGPEQALALAREAAGERDIRISGGANVIQQYLNLGLVDELEIALIPVIFGGGRRLFENLHEPLPQFRIDRVLASPTATHLRYVRL”, the protein production result is “not failed”.

Regarding “MSKVIIPKIVGHRGVGKEGLAPENTLRSFVLCMERNIPYIETDLRVCKTGEIVLFHGTPEGTIPFYKDGTSRIGDLSLEELKRLDVGGGHTIPSLEELFVAIEEQKFNLKLNLELKGEEWKRKESGDHQRLLLLVEKYHMQERVDYCSFHHEALAHLKALCPDVKITYLFNYMGQPTPLDFVEQTQKACYGDANGVSMLFHYLTKEQVCTAHEKGLSVTVWMPWIFDDSEEDWKKCLELQVDLICSNYPFGLMNFLSNISE”, the protein production result is “not failed”.

On to “MSKVNQQDIDKLIELVGGRGNIATVSHCITRLRFVLNDPAIARPKEIEQLRMVKGCFTNAGQFQVVIGTEVGDYYKALLATTGQTSADKEQVKQAARQNM”, for which the protein production result is listed as “failed”.

Consider “MSLAARLIRSSRSNTFGIITDYVSTTPYSVDIVRGIQDWANANGKTILIANTGGSSEREVEIWKMFQSHRIDGVLYVTMYRRIVDPESGDVSIPTVMINCRPQTRELLPSIEPDDYQGARDLTRYLLERGHRRIGYIRLNPILLGAELRLDAFRRTTSEFGLTENDLSISLGMDGPVGAENNYVFAAATEMLKQDDRPTAIMSGNDEMAIQIYIAAMALGLRIPQDVSIVGFDDFRTVTMALKPELTTAALPYYDLGREGAKWLNDLIAGEKIYPGSRVVSCKLVERSSAAFGEGHHHHHH”, for which the protein production result was “not failed”.

Take “MSLAEVNPMSKPLVRWPINPLRTAVIVVDMQKVFCEPTGALYVKSTADIVQPIQKLLQAARAAQVMVIYLRHIVRGDGSDTGRMRDLYPNVDQILARHDPDVEVIEALAPQSDDVIVDKLFYSGFHNTDLDTVLRARDVDTIIVCGTVTNVCCETTIRDGVHREYKVIALSDANAAMDYPDVGFGAVSAADVQRISLTTIAYEFGEVTTTAEVIRRIESAYPHGREGHHHHHH”: the protein production result was “not failed”.

In the case of “MSLAKPIEAHTVSPVNPNAQQTTKTVMNWLAHLPNRTENRVLSGAFGGYSHDTFSMAEADRIRSATGQSPAIYGCDYARGWLETANIEDSIDVSCNGDLMSYWKNGGIPQISLHLANPAFQSGHFKTPITNDQYKKILDSSTVEGKRLNAMLSKIADGLQELENQGVPVLFRPLHEMNGEWFWWGLTSYNQKDNERISLYKQLYKKIYHYMTDTRGLDHLIWVYSPDANRDFKTDFYPGASYVDIVGLDAYFQDAYSINGYDQLTALNKPFAFTEVGPQTANGSFDYSLFINAIKQKYPKTIYFLAWNDEWSAAVNKGASALYHDSWTLNKGEIWNGDSLTPIVEEGHHHHHH”, the protein production result is “not failed”.

“MSLANKPLAKALETISGIPITPFRKSDGSIDWHHYKETVDRIVDNGIDVIVPCGNTSEFYALSLEEAKEEVRRTVEYVHGRALVVAGIGYATSTAIELGNAAKAAGADAVMIHMPIHPYVTAGGVYAYFRDIIEALDFPSLVYFKDPEISDRVLVDLAPLQNLVGVKYAINDLPRFAKVVRSIPEEHQIAWICGTAEKWAPFFWHAGAKGFTSGLVNLLPQKAVEMLEALRNNDNDAVWRIWEDIVPFEDLRGKYNQGNNVVVIKEAMEMLRQNAGVTRAPVNELSNEDKQLVTELLSSWKLLQPTKGEGHHHHHH”: the protein production entry is “not failed”.

On to “MSLAPYRVDFILLEHFSMASFTVAMDVLVTANLLRADSFQFTPLSLDGDRVLSDLGLELVATELSAAALKELDLLVVCGGLRTPLKYPELDRLLNDCAAHGMALGGLWNGAWFLGRAGVLDDYGCSIHPEQRASLSERSPQTRITPASFTLDRDRLSAASPNGAMELMLGLVRRLYGDGLAEGVEEILSFSGAREGHHHHHH”, for which the protein production result is “not failed”.

In the case of “MSLAQKLRQASSRLLGVVFELQQPFHGDLVEQIYAAATRRGYDVMLSAVAPSRAEKVAVQALMRERCEAAILLGTRFDTDELGALADRVPALVVARASGLPGVGAVRGDDVAGITLAVDHLTELGHRNIAHIDGADAPGGADRRAGFLAAMDRHGLSASATVVTGGTTETEGAEGMHTLLEMPTPPTAVVAFNDRCATGVLDLLVRSGRDVPADISVVGYDDSRLARIPHVQMTTISQDATHMAEAAVDGALAQISGDKAVDLVLAPHLVRRATTGPVAHREGHHHHHH”, the protein production result is reported as “not failed”.

For the sequence “MSLAQYPVIGIDDDEFATAKKLITKQEVRAVTLSKLRLQDDLVMWDIGAGSASVSIEASNLMPNGRIFALERNPQYLGFIRDNLKKFVARNVTLVEAFAPEGLDDLPDPDRVFIGGSGGMLEEIIDAVDRRLKSEGVIVLNAVTLDTLTKAVEFLEDHGYMVEVACVNVAKTKGLTEYKMFESHNPVYIITAWKSDEGHHHHHH”, the protein production result is “not failed”.

Consider “MSLASLIGLAVCTGNAFSPALAAEAKQPNLVIIMADDLGYGDLATYGHQIVKTPNIDRLAQEGVKFTDYYAPAPLSSPSRAGLLTGRMPFRTGIRSWIPSGKDVALGRNELTIANLLKAQGYDTAMMGKLHLNAGGDRTDQPQAQDMGFDYSLANTAGFVTDATLDNAKERPRYGMVYPTGWLRNGQPTPRADKMSGEYVSSEVVNWLDNKKDSKPFFLYVAFTEVHSPLASPKKYLDMYSQYMSAYQKQHPDLFYGDWADKPWRGVGEYYANISYLDAQVGKVLDKIKAMGEEDNTIVIFTSDNGPVTREARKVYELNLAGETDGLRGRKDNLWEGGIRVPAIIKYGKHLPQGMVSDTPVYGLDWMPTLAKMMNFKLPTDRTFDGESLVPVLEQKALKREKPLIFGIDMPFQDDPTDEWAIRDGDWKMIIDRNNKPKYLYNLKSDRYETLNLIGKKPDIEKQMYGKFLKYKTDIDNDSLMKARGDKPEAVTWGEGHHHHHH”, for which the protein production entry is reported as “not failed”.

As for “MSLASLPISNFFTFNHQSTLFTKVKNFMGVKHIGDCMKALINGTIYTSFSPVKKVSGLVISNERVLYAGDSSTALRIAELAGGEIIDLKGKFVMPAFFDSHLHLDELGMSLEMVDLRGVKSMEELVERVKKGRGRIIFGFGWDQDELGRWPTREDLDVIDRPVFLYRRCFHVAVMNSKMIDLLNLKPSKDFDESTGIVRERALEESRKIINEKILTVKDYKHYIESAQEHLLSLGVHSVGFMSVGEKALKALFELEREGRLKMNVFAYLSPELLDKLEELNLGKFEGRRLRIWGVKLFVDGSLGARTALLSEPYTDNPTTSGELVMNKDEIVEVIERAKPLGLDVAVHAIGDKAVDVALDAFEEAEFSGRIEHASLVRDDQLERIKELKVRISAQPHFIVSDWWIVNRVGEERAKWAYRLKTLSSITKLGFSTDSPIEPADPWVSIDAAVNRYVVDPGERVSREEALHLYTHGSAQVTLAEDLGKLERGFRAEYIILDRDPLKEMKGIITITTDPNSSSVDKLAAALEHHHHHH”, the protein production entry is recorded as “not failed”.

“MSLASYFIGVDVGTGSARAGVFDLQGRMVGQASREITMFKPKADFVEQSSENIWQAVCNAVRDAVNQADINPIQVKGLGFDATCSLVVLDKEGNPLTVSPSGRNEQNVIVWMDHRAITQAERINATKHPVLEFVGGVISPEMQTPKLLWLKQHMPNTWSNVGHLFDLPDFLTWRATKDETRSLCSTVCKWTYLGHEDRWDPSYFKLVGLADLLDNNAAKIGATVKPMGAPLGHGLSQRAASEMGLIPGTAVSVSIIDAHAGTIGILGASGVTGENANFDRRIALIGGTSTAHMAMSRSAHFISGIWGPYYSAILPEYWLNEGGQSATGALIDHIIQSHPCYPALLEQAKNKGETIYEALNYILRQMAGEPENIAFLTNDIHMLPYFHGNRSPRANPNLTGIITGLKLSTTPEDMALRYLATIQALALGTRHIIETMNQNGYNIDTMMASGGGTKNPIFVQEHANATGCAMLLPEESEAMLLGSAMMGTVAAGVFESLPEAMAAMSRIGKTVTPQTNKIKAYYDRKYRVFHQMYHDHMRYQALMQEGEGHHHHHH”: the protein production result is recorded as “not failed”.
